The values that follow come from publication PMC7293249.

Substitutions are numbered along the chain they refer to.

The term EC50 denotes the concentration giving half of the maximal effect. A low value points to a more potent agent.

Assay [1] deals with human activated protein C (human) (UniProt P04070).
Assay [2] shares this target. Briefly: ELISA; hAPC or hPC coated directly on Maxisorp plates at 100 ng/well in PBS/Ca2+; antibodies titrated, 1 h at RT; detection with HRP anti-human Fc. For orientation: An ELISA detects its analyte on a solid surface through an enzyme-linked reagent.
For assay [3] the target is unchanged. The source holds these as a separate data set.
The target is the same in assay [4]. The source holds these as a separate data set.
The target is the same in assay [5]. The source holds these as a separate data set.
For assay [6] the target is unchanged. Briefly: ELISA; APC-binding ELISA of the purified Fabs on human APC and Gla-domainless APC; format not told.

B1: type I anti-APC mAb TPP-2312 (BAY1316786) (antibody, V domains shown)
VH: EVQLLESGGGLVQPGGSLRLSCAASGFTFSSYWMSWVRQAPGKGLEWVSGVSWNGARTHYADSVKGRFTISRDNSKNTLYLQMNSLRAEDTAVYYCALTGRSGWMRFPNWFDPWGQGTLVTVSS
VL: QSVLTQPPSVSGAPGQRVTISCTGSSSNIGAAYDVHWYQQLPGTAPKLLIYGNNKRPSGVPDRFSGSKSGTSASLAITGLQAEDEADYYCQSYDSSLSGSVFGGGTKLTVL
Regarding B1, in assay [1], the Protac-aPTT in normal human plasma, inhibition of APC anticoagulant activity, IC50 came to 7 nM and the Protac-aPTT in normal human plasma, maximal inhibition of APC anticoagulant activity worked out at 93%. Further, in assay [2], the concentration giving a half-maximal response (EC50) is 0.4 nM. Besides, in assay [3], the Protac-aPTT in FVIII-antibody-treated normal human plasma, IC50 was found to be 5 nM; the Protac-aPTT in hemophilia A plasma, inhibition of APC activity, IC50 came out at 5 nM; the Protac-aPTT in hemophilia A plasma, maximal inhibition of APC activity was determined as 87%. In assay [4], this molecule returned an inhibition of APC amidolytic activity (Spectrozyme PCa), IC50 of 4.8 nM and a maximal inhibition of APC amidolytic activity (Spectrozyme PCa), mAb 0.5-500 nM of 98%. Also, the TM–TGA in normal human plasma, increase of thrombin generation, EC50 in assay [5] came to 38 nM.

B2: C25K23Fab (type I Fab, TTP-2781) (Fab, V domains shown)
VH: B1 VH with A56S, S123T
VL: B1 VL with V10A, A13T, T78S, Q81R, A82S
In turn, B2 yielded a half-maximal effective concentration (EC50) in assay [6] of 2 to 4 nM.
